From paper PMC5605520, “Ylehd, an epoxide hydrolase with promiscuous haloalkane dehalogenase activity from tropical marine yeast Yarrowia lipolytica is induced upon xenobiotic stress” (Scientific Reports, 2017) come the findings set out here.

Test [1] concerns the target Ylehd (epoxide hydrolase with promiscuous haloalkane dehalogenase activity from Yarrowia lipolytica NCIM 3589) (Yarrowia lipolytica NCIM 3589). Kind of test: SEC; Superdex S200 10/300GL equilibrated with 50 mM sodium acetate buffer pH 4.5; mass from calibration with proteins of known molecular mass. In general terms: In gel filtration, larger molecules generally elute earlier.

For test [2] the target is unchanged. The experiment in a line: SEC; Superdex S200 10/300GL equilibrated with 50 mM Tris-sulphate buffer pH 8.0; mass from calibration with proteins of known molecular mass.
Test [3] has as its target T1, Ylehd (Yarrowia lipolytica, UniProt Q6C598).
T1 construct: gene YALI0_E19899g; full-length ORF in pET28a, His-tagged, E. coli BL21AI; 352 amino acids; 43 kDa monomer; likely dimer at pH 8.0 (EH), tetramer at pH 4.5 (HLD)
The experiment in a line: spectrophotometric residual epoxide assay, […] nm. Type of test: biochemical. Conditions: epoxide hydrolase activity; 50 mM Tris-sulphate, pH 8.0, 30 °C.

The term stoichiometry N denotes a count of units in the complex or per binding partner. Broadly, the Km is the substrate concentration at which the rate is half of its maximum.

Take “Ylehd (epoxide hydrolase with promiscuous haloalkane dehalogenase activity from Yarrowia lipolytica NCIM 3589) (enzyme)”: the stoichiometry N worked out at 4 in test [1] and 2 in test [2].
As for `CCCCCCC1CO1` (stereo not drawn) [1,2-Epoxyoctane], in test [3], the Michaelis-Menten constant (Km) stood at 500 ± 45 µM.
